Positions count from the first letter of the chain named. Names and notes keep the numbering of the source.

First the molecules themselves.
T1: binary Q-SNARE complex (Habc-truncated Sso1: Sec9) on vesicle membranes (yeast (S. cerevisiae), UniProt P32867;P40357)
T1 sequence 1: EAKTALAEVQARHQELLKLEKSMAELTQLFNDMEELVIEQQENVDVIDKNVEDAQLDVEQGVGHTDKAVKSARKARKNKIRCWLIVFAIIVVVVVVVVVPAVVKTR
T1 sequence 2: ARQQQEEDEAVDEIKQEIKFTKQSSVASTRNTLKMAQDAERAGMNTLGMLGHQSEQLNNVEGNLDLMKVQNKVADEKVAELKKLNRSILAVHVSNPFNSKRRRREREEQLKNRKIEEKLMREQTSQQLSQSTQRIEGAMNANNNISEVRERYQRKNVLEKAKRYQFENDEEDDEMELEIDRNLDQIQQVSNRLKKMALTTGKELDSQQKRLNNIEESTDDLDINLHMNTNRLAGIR

T2: binary Q-SNARE complex (full-length Sso1: Sec9) on vesicle membranes (yeast (S. cerevisiae), UniProt P32867;P40357)
T2 sequence 1: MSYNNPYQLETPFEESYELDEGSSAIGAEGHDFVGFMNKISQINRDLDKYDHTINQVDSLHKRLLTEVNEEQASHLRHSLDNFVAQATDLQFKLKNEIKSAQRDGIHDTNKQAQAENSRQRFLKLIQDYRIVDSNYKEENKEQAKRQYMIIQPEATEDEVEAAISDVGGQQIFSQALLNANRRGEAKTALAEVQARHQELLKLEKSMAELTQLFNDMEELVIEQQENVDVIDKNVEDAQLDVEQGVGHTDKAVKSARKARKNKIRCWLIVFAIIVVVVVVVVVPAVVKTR
T2 sequence 2: T1 sequence 2

T3: Full length Sso1 WT (a.a. 1-290) (yeast (S. cerevisiae), UniProt P32867 1-290)
T3 sequence: T2 sequence 1

B1: Snc2 WT (1-115) (natural protein)
chain: MSSSVPYDPYVPPEESNSGANPNSQNKTAALRQEIDDTVGIMRDNINKVAERGERLTSIEDKADNLAISAQGFKRGANRVRKQMWWKDLKMRMCLFLVVIILLVVIIVPIVVHFS
B2: Cy3-labeled Sec9 (A442C) (domain or fragment)
chain: T1 sequence 2 with A27C
B3: Habc domain-truncated Sso1 (a.a. 185-290) (domain or fragment)
chain: T1 sequence 1
B4: Sec9 (a.a. 416-651) (domain or fragment)
chain: T1 sequence 2

Experiment [1] concerns the target T1, binary Q-SNARE complex (Habc-truncated …). Nature of the experiment: single-vesicle docking.
The target in experiment [2] is T2, binary Q-SNARE complex (full-length …). Nature of the experiment: single-vesicle docking.
Experiment [3] concerns the target T3, Full length Sso1 WT (a.a. 1-290). The experiment in a line: single-molecule pull-down.
The target of the experiment “Sec9 (a.a. 416-651)” is B4. Nature of the experiment: single-vesicle docking.
In experiment [4] the target is T3, Full length Sso1 WT (a.a. 1-290). Nature of the experiment: single-vesicle docking.

Turning to B1, the binding result in experiment [1] and in experiment [2] was “binds” each time.

As for B2, the binding result in experiment [3] is “binds”.

For the molecule B3, in the experiment with Sec9 (a.a. 416-651), the binding result was “binds”.

With B4, in experiment [4], the binding result is recorded as “binds”.

The record behind these values is doi:10.1101/2022.01.16.476540 (bioRxiv, 2022).
